Experimental data as given in IntAct's records for PubMed 19250911.

B1: Next to BRCA1 gene 1 protein (Homo sapiens), Q14596 (parent)
chain: MEPQVTLNVTFKNEIQSFLVSDPENTTWADIEAMVKVSFDLNTIQIKYLDEENEEVSINSQGEYEEALKMAVKQGNQLQMQVHEGHHVVDEAPPPVVGAKRLAARAGKKPLAHYSSLVRVLGSDMKTPEDPAVQSFPLVPCDTDQPQDKPPDWFTSYLETFREQVVNETVEKLEQKLHEKLVLQNPSLGSCPSEVSMPTSEETLFLPENQFSWHIACNNCQRRIVGVRYQCSLCPSYNICEDCEAGPYGHDTNHVLLKLRRPVVGSSEPFCHSKYSTPRLPAALEQVRLQKQVDKNFLKAEKQRLRAEKKQRKAEVKELKKQLKLHRKIHLWNSIHGLQSPKSPLGRPESLLQSNTLMLPLQPCTSVMPMLSAAFVDENLPDGTHLQPGTKFIKHWRMKNTGNVKWSADTKLKFMWGNLTLASTEKKDVLVPCLKAGHVGVVSVEFIAPALEGTYTSHWRLSHKGQQFGPRVWCSIIVDPFPSEESPDNIEKGMISSSKTDDLTCQQEETFLLAKEERQLGEVTEQTEGTAACIPQKAKNVASERELYIPSVDLLTAQDLLSFELLDINIVQELERVPHNTPVDVTPCMSPLPHDSPLIEKPGLGQIEEENEGAGFKALPDSMVSVKRKAENIASVEEAEEDLSGTQFVCETVIRSLTLDAAPDHNPPCRQKSLQMTFALPEGPLGNEKEEIIHIAEEEAVMEEEEDEEDEEEEDELKDEVQSQSSASSEDYIIILPECFDTSRPLGDSMYSSALSQPGLERGAEGKPGVEAGQEPAEAGERLPGGENQPQEHSISDILTTSQTLETVPLIPEVVELPPSLPRSSPCVHHHGSPGVDLPVTIPEVSSVPDQIRGEPRGSSGLVNSRQKSYDHSRHHHGSSIAGGLVKGALSVAASAYKALFAGPPVTAQPIISEDQTAALMAHLFEMGFCDRQLNLRLLKKHNYNILQVVTELLQLNNNDWYSQRY
B2: Next to BRCA1 gene 1 protein (Homo sapiens), Q14596 (parent)
chain: B1 chain
partner: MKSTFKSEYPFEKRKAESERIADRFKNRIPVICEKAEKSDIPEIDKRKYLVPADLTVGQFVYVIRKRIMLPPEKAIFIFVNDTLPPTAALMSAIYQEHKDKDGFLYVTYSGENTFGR

Experiments:
[1] = variants of: B1; conditions: with gbrap_human GABARAP
[2] = variants of: B1; conditions: with gbrl2_human GABARAPL2, P60520
gbrl2_human GABARAPL2, P60520, sequence (P60520 whole entry): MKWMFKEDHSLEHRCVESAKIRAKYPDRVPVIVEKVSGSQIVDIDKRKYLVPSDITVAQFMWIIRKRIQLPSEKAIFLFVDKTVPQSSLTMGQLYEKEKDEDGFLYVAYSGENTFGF

[3] = variants of: B1; conditions: with mlp3b_human MAP1LC3B
[4] = variants of: B2; conditions: with atg8_yeast ATG8, P38182

effect of a mutation on the interaction [1] | effect of a mutation on the interaction [2] | effect of a mutation on the interaction [3] | effect of a mutation on the interaction [4] | Variant
decreasing interaction | decreasing interaction | decreasing interaction | – | Y732A
– | – | – | decreasing interaction | Y732A
